The target in experiment [1] is T1, recombinant human IL2RB-huFc (human) (UniProt P14784).
T1 sequence (chain, minimally biotinylated): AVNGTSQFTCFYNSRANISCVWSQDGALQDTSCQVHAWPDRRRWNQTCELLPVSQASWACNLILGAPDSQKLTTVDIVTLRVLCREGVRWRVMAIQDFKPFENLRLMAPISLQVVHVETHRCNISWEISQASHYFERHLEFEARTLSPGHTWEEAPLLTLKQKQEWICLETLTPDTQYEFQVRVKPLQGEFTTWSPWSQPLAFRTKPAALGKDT

For experiment [2], the target named is T2, Recombinant CD25 protein (IL-2R alpha chain) (human, UniProt P01589 22-240).
T2 construct: IL-2 receptor alpha chain (CD25, IL2RA), recombinant, R&D Systems cat #223-2A/CF; source: bought: R&D Systems (cat #223-2A/CF)
T2 sequence (looked up): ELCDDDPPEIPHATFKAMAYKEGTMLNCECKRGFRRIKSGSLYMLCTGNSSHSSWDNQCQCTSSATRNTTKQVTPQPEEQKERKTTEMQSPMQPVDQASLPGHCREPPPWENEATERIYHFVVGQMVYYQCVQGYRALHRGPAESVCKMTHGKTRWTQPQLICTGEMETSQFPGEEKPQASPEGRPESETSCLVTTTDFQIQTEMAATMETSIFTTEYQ
In words: SPR; CD25 amine-coupled (EDC/NHS) to a CM5 chip, about 90 RU, Biacore T100; IL-2 Fc fusions as analytes, 3-fold series from 500 to 6.2 nM in PBS + 0.05% Tween-20, 75 uL/min; steady state RU levels fitted globally to a 4-parameter logistic function to derive EC50. Conditions: both partners purified.

Drawing on publication PMC7291599, “Defining the Threshold IL-2 Signal Required for Induction of Selective Treg Cell Responses Using Engineered IL-2 Muteins” (Frontiers in Immunology, 2020), this text covers pSTAT5 MFI EC50 in CD25hi Foxp3+ Treg cells, human whole blood assay (AVG EC50, n = 3 donors) and EC50 for 14 molecules.

Where a chain is given by its changes, count along the chain named. Numbers in names are those of the source.

For “IL-2 mutein D20A (Fc fusion) (from UniProt P60568 21-153)”, the pSTAT5 MFI EC50 in CD25hi Foxp3+ Treg cells, human whole blood assay (AVG EC50, n = 3 donors) in experiment [1] was determined as 1.21 nM.

In the case of “IL-2 mutein D20A H16R E61Q (Fc fusion) (from UniProt P60568 21-153)”, the pSTAT5 MFI EC50 in CD25hi Foxp3+ Treg cells, human whole blood assay (AVG EC50, n = 3 donors) in experiment [1] stood at 20.7 nM.

In the case of “IL-2 mutein D20A M104T (Fc fusion) (from UniProt P60568 21-153)”, the pSTAT5 MFI EC50 in CD25hi Foxp3+ Treg cells, human whole blood assay (AVG EC50, n = 3 donors) in experiment [1] is 1.67 nM.

For the molecule “IL-2 mutein D20G (Fc fusion) (from UniProt P60568 21-153)”, in experiment [1], the pSTAT5 MFI EC50 in CD25hi Foxp3+ Treg cells, human whole blood assay (AVG EC50, n = 3 donors) was determined as 6.24 nM.

For the molecule “IL-2 mutein D20W (Fc fusion) (from UniProt P60568 21-153)”, in experiment [1], the pSTAT5 MFI EC50 in CD25hi Foxp3+ Treg cells, human whole blood assay (AVG EC50, n = 3 donors) is 20.9 nM.

Regarding “IL-2 mutein H16E (Fc fusion) (from UniProt P60568 21-153)”, the pSTAT5 MFI EC50 in CD25hi Foxp3+ Treg cells, human whole blood assay (AVG EC50, n = 3 donors) in experiment [1] was determined as 0.067 nM.

On to “IL-2 mutein H16E E61Q (Fc fusion) (from UniProt P60568 21-153)”, for which, in experiment [1], the pSTAT5 MFI EC50 in CD25hi Foxp3+ Treg cells, human whole blood assay (AVG EC50, n = 3 donors) was 2.34 nM.

Regarding “IL-2 mutein H16E M104L (Fc fusion) (from UniProt P60568 21-153)”, the pSTAT5 MFI EC50 in CD25hi Foxp3+ Treg cells, human whole blood assay (AVG EC50, n = 3 donors) in experiment [1] stood at 0.062 nM.

For the molecule “IL-2 mutein N88D (Fc fusion) (from UniProt P60568 21-153)”, the pSTAT5 MFI EC50 in CD25hi Foxp3+ Treg cells, human whole blood assay (AVG EC50, n = 3 donors) in experiment [1] was determined as 0.418 nM.

Consider “IL-2 mutein N88K (Fc fusion) (from UniProt P60568 21-153)”, for which the pSTAT5 MFI EC50 in CD25hi Foxp3+ Treg cells, human whole blood assay (AVG EC50, n = 3 donors) in experiment [1] is 23.3 nM.

As for “IL-2 mutein V91K D20A M104V (Fc fusion) (from UniProt P60568 21-153)”, the pSTAT5 MFI EC50 in CD25hi Foxp3+ Treg cells, human whole blood assay (AVG EC50, n = 3 donors) in experiment [1] came out at 4.76 nM.

In the case of “IL-2 mutein V91S (Fc fusion) (from UniProt P60568 21-153)”, the pSTAT5 MFI EC50 in CD25hi Foxp3+ Treg cells, human whole blood assay (AVG EC50, n = 3 donors) in experiment [1] worked out at 0.089 nM.

B1: IL-2 mutein D20A H16R E61Q (Fc fusion) (Fc fusion, human, UniProt P60568 21-153, looked up)
chain: APTSSSTKKTQLQLERLLLALQMILNGINNYKNPKLTRMLTFKFYMPKKATELKHLQCLEQELKPLEEVLNLAQSKNFHLRPRDLISNINVIVLELKGSETTFMCEYADETATIVEFLNRWITFCQSIISTLT
notes: human interleukin-2 (IL-2), fused to the Fc of human IgG1 (N297G); H16 is H36 in P60568); Homodimeric Fc fusion, bivalent for IL-2; source: CHO K1, stably integrated, purified from culture media (MabSelect SuRe, desalting, Superdex 200 SEC)
By EC50 is commonly meant the concentration giving half of the maximal effect. With B1, the EC50 in experiment [2] came to 157 nM.

B2: IL-2 mutein V91K D20A M104V (Fc fusion) (Fc fusion, human, UniProt P60568 21-153, looked up)
chain: B1 chain with R16H, Q61E, V91K, M104V
notes: as for B1
As for B2, the EC50 in experiment [2] was determined as 6 nM.
